# In patent publication US20220090012A1:
# Target: Transforming Growth Factor Beta Receptor II (TGFBRII) (human) (UniProt P37173)
# Experiment: cell-based or functional assay
# Chain of Transforming Growth Factor Beta Receptor II (TGFBRII) (human) (P37173 23-567): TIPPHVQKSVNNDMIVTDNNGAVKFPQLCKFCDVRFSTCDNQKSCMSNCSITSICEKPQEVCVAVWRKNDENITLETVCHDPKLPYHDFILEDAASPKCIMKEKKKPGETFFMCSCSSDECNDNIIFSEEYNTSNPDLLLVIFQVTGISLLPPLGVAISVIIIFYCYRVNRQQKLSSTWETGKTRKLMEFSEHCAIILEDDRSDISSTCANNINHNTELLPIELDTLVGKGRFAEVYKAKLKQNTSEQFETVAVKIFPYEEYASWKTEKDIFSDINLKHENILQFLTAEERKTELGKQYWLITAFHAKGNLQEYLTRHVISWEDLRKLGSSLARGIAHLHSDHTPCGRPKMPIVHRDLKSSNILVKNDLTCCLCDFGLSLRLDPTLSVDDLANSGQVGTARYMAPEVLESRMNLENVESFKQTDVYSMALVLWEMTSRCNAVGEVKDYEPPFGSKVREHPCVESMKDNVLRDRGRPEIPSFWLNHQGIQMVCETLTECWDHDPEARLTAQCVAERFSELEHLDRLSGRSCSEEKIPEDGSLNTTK
substance,measurement,value
recombinant human TGF-β (from UniProt P28072 35-239) (ligand),"CAR T cell expansion (cell number over time) with 10, 20, 50 and 100 ng/ml TGF-β",< 10 ng/mL
